Measured values taken from patent US20230349903A1, “ASSAYS AND REAGENTS FOR CHARACTERIZATION OF MHCI PEPTIDE BINDING” (priority 2020, published 2023).
Where no end group is shown, it is not given here. [ ]: non-standard residue; d: D form. code J = not defined here

Key:
B*35:03 [1] = molecular target: T1, B*35:03 (Homo sapiens, UniProt P01889, A329T/A93T/A95T/C349S/D201E/D98Y/E176V/E187L/E204Q/E69T/I218V/K202T/L119I/Q94N/R155S/R180L/S121R/S35A/S48A/T118I/V127L/V306I/V36M/Y140F/Y91F); conditions: IEDB value, cellular MHC/mass spectrometry; cited from earlier work
C*02:02 [2] = molecular target: T2, C*02:02 (Homo sapiens, UniProt P10321, A176E/A235T/A330V/A97T/C350S/D114A/D33Y/G40S/L171W/L180W/L218V/M285V/M309V/M331V/N104K/P208H/Q277E/Q291P/R45H/S101N/S123Y/S297R/S48A/T187E/T329A/T363A/V319A); conditions: IEDB value, cellular MHC/mass spectrometry; cited from earlier work
B*18:01 = B*18:01 (Homo sapiens, UniProt P01889, A329T/A93T/A95T/C349S/D201E/D54G/D98Y/E176V/E187T/E204Q/E69T/K202T/Q94N/R155S/R180L/S121R/V306I/Y140S/Y195H/Y33H/Y91S); conditions: IEDB value, purified MHC/competitive/radioactivity, read-out: half maximal inhibitory concentration (IC50); cited from earlier work
A*26:01 = A*26:01 (Homo sapiens, UniProt P04439, A114D/A173T/A270S/D101N/D185E/E277Q/E87N/F33Y/G231S/I121R/I218V/K168Q/L180W/L300P/L318F/P208A/P217A/Q86R/Q94H/R138Q/S129P/T187R/T323A/T345S/V100A/V358M); conditions: IEDB value, purified MHC/direct/fluorescence, read-out: dissociation constant KD (~EC50); cited from earlier work
C*02:02 [3] = molecular target: T2, C*02:02; assay: ELISA of small scale MHCI refold (anti-HLA W6/32 capture, anti-B2M detection); type: binding; conditions: for S/N ELISA value: C*02:02, 1.0 μg/mL MHCI, no peptide control as background; for normalized ELISA OD: C*02:02, 1 μg/mL MHCI, normalized to no peptide control
Method: Recombinant HLA alleles and B2M were over-expressed in E. coli, purified from inclusion bodies, and stored under denaturing conditions (6M Guanidine HCL, 25 mM Tris pH 8) in −80° C. as described above. In a 200 μL reaction, the peptide (0.01 mM, per well), oxidized and reduced glutathione (0.5 mM and 4.0 mM, respectively), recombinant HLA alleles (0.03 mg/mL) and B2M (0.01 mg/mL) were all combined within a 96-well plate. Refold screens were performed with five different peptides for each HLA of interest as described above (Table 3). and the MHCI complex was incubated at 4° C. for 3-5 days to allow refolding. Refolded samples were analyzed by ELISA, and the highest performing peptide was selected for further analysis. All data was analyzed relative to the negative control refold, which was performed in the absence of peptide (labeled NP). HLA-A*02:01 refolded with the CMV pp65 viral epitope was used as a positive control. […]
(§1) A 384-well Nunc Maxisorp plate (ThermoFisher Scientific, Waltham, MA) was coated with 25 μL/well of mouse IgG2a anti-HLA ABC clone W6/32 (Novus Biological, Littleton, Co.) at 8 μg/mL in coating buffer (0.05 sodium carbonate pH 9.6). After overnight incubation at 4° C., the plate was washed 3 times with wash buffer (PBS, 0.5% Tween 20). The plate was then blocked with 50 μL/well of Block buffer (PBS, 0.5% BSA, 10 ppm Proclin) and incubated at room temperature (RT) with agitation for 1 hour. […] The plate was washed six times and 25 IL of biotinylated mouse IgG1 anti-human B2M (BioLegend, San Diego, CA) at 100 ng/mL in assay diluent was added to each well. After a 1 hour incubation at RT and six washes, 25 μL/well of Streptavidin-Horseradish Peroxidase (GE, Marlborough, MA) was added to the plate and incubated for 30 min at RT. The color reaction was developed with TMB peroxidase substrate (Moss, Pasadena, MD) at RT for 15 min, and the reaction was stopped with 1M phosphoric acid. The absorbance was measured at a wavelength of […] with a reference at 620 nm. Refolded MHC monomers without peptide or irrelevant peptide were used as the negative controls for each allele to normalize the signal.
(§2) Recombinant HLA alleles and B2M were over-expressed in E. coli, purified from inclusion bodies, and stored under denaturing conditions (6M Guanidine HCl, 25 mM Tris pH 8) in −80° C. as described above. In a 200 μL reaction, the peptide (0.01 mM, per well), oxidized and reduced glutathione (0.5 mM and 4.0 mM, respectively), recombinant HLA alleles (0.03 mg/mL) and B2M (0.01 mg/mL) were all combined in a 96-well plate. Refolds were performed with five different peptides for each HLA of interest as described above (Table 3), and the MHCI complex was incubated at 4° C. for 3-5 days to allow refolding. MHCI complex refolds were also performed in the absence of a peptide and used as the negative control to calculate the signal to noise (S/N) for the experimental peptides. Given that there should have been minimal properly refolded complex in the absence of a peptide, these samples provided the overall background of the assay to calculate the S/N value. HLA-A*02:01 refolded with the CMV pp65 viral epitope was used as a positive control. Peptides yielding the highest signal to noise ratio (S/N) were selected for further analysis.
Two different ELISA assays were evaluated to optimize the sensitivity of the assay. In the first assay format, the refolded MHCI was captured with anti-B2M antibody and detected with pan ABC anti-HLA antibody (clone W6/32). In the second assay format, MHCI was captured with the pan ABC anti-HLA antibody (clone W6/32) and detected with the anti-B2M antibody. In both assays, a 384-well Nunc Maxisorp plate (Thermo Fisher Scientific, Waltham, MA) was coated with 25 μL/well of capture antibody, mouse IgG1 anti-human B2M (BioLegend, San Diego, CA) or mouse IgG2a anti-HLA ABC clone W6/32 (Novus Biological, Littleton, Co.), at 8 μg/mL in coating buffer (0.05 sodium carbonate pH 9.6). […]

HLA-A*02:03 = HLA-A*02:03 (Homo sapiens, UniProt P04439, A173T/D140Y/D185E/D98H/E277Q/G131W/G231S/I119V/I121R/I166T/I218V/L180W/L300P/L318F/N151K/N90K/P208A/P217A/Q86G/Q94H/R138H/R169H/T345S); assay: as above; type: binding; design: inferred from enzymatic biotinylation; made in house; host or cells: Escherichia coli; conditions: for S/N ELISA value: A*02:03, 1.0 μg/mL MHCI, no peptide control as background; for normalized ELISA OD (signal to background): A*02:03, 1 μg/mL MHCI, normalized to no peptide control
Method: Recombinant HLA alleles and B2M were over-expressed in E. coli, purified from inclusion bodies, and stored under denaturing conditions (6M Guanidine HCL, 25 mM Tris pH 8) in −80° C. as described above. In a 200 μL reaction, the peptide (0.01 mM, per well), oxidized and reduced glutathione (0.5 mM and 4.0 mM, respectively), recombinant HLA alleles (0.03 mg/mL) and B2M (0.01 mg/mL) were all combined within a 96-well plate. Refold screens were performed with five different peptides for each HLA of interest as described above (Table 3). and the MHCI complex was incubated at 4° C. for 3-5 days to allow refolding. […] All data was analyzed relative to the negative control refold, which was performed in the absence of peptide (labeled NP). HLA-A*02:01 refolded with the CMV pp65 viral epitope was used as a positive control.
A 384-well Nunc Maxisorp plate (ThermoFisher Scientific, Waltham, MA) was coated with 25 μL/well of mouse IgG2a anti-HLA ABC clone W6/32 (Novus Biological, Littleton, Co.) at 8 μg/mL in coating buffer (0.05 sodium carbonate pH 9.6). After overnight incubation at 4° C., the plate was washed 3 times with wash buffer (PBS, 0.5% Tween 20). The plate was then blocked with 50 μL/well of Block buffer (PBS, 0.5% BSA, 10 ppm Proclin) and incubated at room temperature (RT) with agitation for 1 hour. After washing the plate 3 times with wash buffer, 25 μL/well of the unpurified refolded MHC complex at 40 μg/mL with and without peptides in assay diluent (PBS, 0.5% BSA+0.05% Tween20+10 ppm Proclin) was added to the plate and incubated for 1 hour at RT. The plate was washed six times and 25 IL of biotinylated mouse IgG1 anti-human B2M (BioLegend, San Diego, CA) at 100 ng/mL in assay diluent was added to each well. After a 1 hour incubation at RT and six washes, 25 μL/well of Streptavidin-Horseradish Peroxidase (GE, Marlborough, MA) was added to the plate and incubated for 30 min at RT. The color reaction was developed with TMB peroxidase substrate (Moss, Pasadena, MD) at RT for 15 min, and the reaction was stopped with 1M phosphoric acid. The absorbance was measured at a wavelength of 405 nm with a reference at 620 nm. […]
C*14:02 = C*14:02 (Homo sapiens, UniProt P10321, A176E/A330V/A35S/A97T/C350S/D114A/D33S/L171W/L180R/L218V/M285V/M309V/M331V/P208H/Q277E/Q291P/R121W/R243W/S123F/S297R/S48A/T329A/T363A/V319A); conditions: IEDB value, purified MHC/direct/fluorescence, read-out: dissociation constant KD; cited from earlier work
B*35:03 [4] = molecular target: T1, B*35:03; assay: ELISA of small scale MHCI refold (anti-HLA W6/32 capture, anti-B2M detection); type: binding; design: inferred from enzymatic biotinylation; made in house; host or cells: Escherichia coli; conditions: for S/N ELISA value: B*35:03, 1.0 μg/mL MHCI, no peptide control as background; for normalized ELISA OD (signal to background): B*35:03, 1 μg/mL MHCI, normalized to no peptide control
Method: Recombinant HLA alleles and B2M were over-expressed in E. coli, purified from inclusion bodies, and stored under denaturing conditions (6M Guanidine HCL, 25 mM Tris pH 8) in −80° C. as described above. In a 200 μL reaction, the peptide (0.01 mM, per well), oxidized and reduced glutathione (0.5 mM and 4.0 mM, respectively), recombinant HLA alleles (0.03 mg/mL) and B2M (0.01 mg/mL) were all combined within a 96-well plate. Refold screens were performed with five different peptides for each HLA of interest as described above (Table 3). and the MHCI complex was incubated at 4° C. for 3-5 days to allow refolding. Refolded samples were analyzed by ELISA, and the highest performing peptide was selected for further analysis. All data was analyzed relative to the negative control refold, which was performed in the absence of peptide (labeled NP). HLA-A*02:01 refolded with the CMV pp65 viral epitope was used as a positive control.
Formation of stable conditional MHCI complexes upon refolding with the redesigned peptides were identified by ELISA as described above. […] The original peptide (containing no UV amino acid substitution) was used as a positive control. All peptides used here were purchased from JPT (www.jpt.com) or ELIM Biopharm (www.elimbio.com).
as §1, §2
Two different ELISA assays were evaluated to optimize the sensitivity of the assay. In the first assay format, the refolded MHCI was captured with anti-B2M antibody and detected with pan ABC anti-HLA antibody (clone W6/32). In the second assay format, MHCI was captured with the pan ABC anti-HLA antibody (clone W6/32) and detected with the anti-B2M antibody. […]

Sequence: APEEHPVLL [Peptide B3503-03]
- ligand presentation (B*35:03 [1]): Positive

Sequence: DAVPFPISL [Peptide C0202-01]
- ligand presentation (C*02:02 [2]): Positive

Sequence: DEFKPIVQY [Peptide B1801-02]
- IC50 (B*18:01): 3.9 nM

Sequence: DELVDPINY [Peptide B1801-04]
- IC50 (B*18:01): 16 nM

Sequence: DTITNVTTM [Peptide A2601-05]
- Kd (A*26:01): 4 nM

Sequence: DVVPMVTQM [Peptide A2601-03]
- Kd (A*26:01): 3 nM

Sequence: ETTNWLWAF [Peptide A2601-02]
- Kd (A*26:01): 2 nM

Sequence: FAAEAJKL (FAAEA[code J]KL; not fully specified; reading uncertain) [Peptide C0202-03-03]
- S/N ELISA value (C*02:02 [3]): highest S/N value
- S/N ELISA value (C*02:02 [3]; listed as C0202-02-03): 8
- normalized ELISA OD (C*02:02 [3]): highest normalized ELISA OD value
- normalized ELISA OD (C*02:02 [3]; listed as C0202-02-03): 8

Sequence: FAAEAQKJ (FAAEAQKX; not fully specified) [Peptide C0202-03-04]
- S/N ELISA value (C*02:02 [3]): very low S/N ELISA values
- normalized ELISA OD (C*02:02 [3]): very low normalized ELISA values

Sequence: FAAEAQKL [Peptide C0202-02]
- S/N ELISA value (C*02:02 [3]): ~8
- normalized ELISA OD (C*02:02 [3]): ~8
- ligand presentation (C*02:02 [2]): Positive

Sequence: FAAJAQKL (FAAXAQKL; not fully specified) [Peptide C0202-03-02]
- S/N ELISA value (C*02:02 [3]): 6
- normalized ELISA OD (C*02:02 [3]): 6

Sequence: FJAEAQKL (FXAEAQKL; not fully specified) [Peptide C0202-03-01]
- S/N ELISA value (C*02:02 [3]): very low S/N ELISA values
- normalized ELISA OD (C*02:02 [3]): very low normalized ELISA values

Sequence: FJYSDFHFI [Peptide A0203-02-01]
- S/N ELISA value (HLA-A*02:03): very low S/N ELISA values
- normalized ELISA OD (signal to background) (HLA-A*02:03): very low normalized ELISA values

Sequence: FMYEGDTPL [Peptide C1402-04]
- Kd (C*14:02): 0.1 nM

Sequence: FMYJDFHFI [Peptide A0203-02-02]
- S/N ELISA value (HLA-A*02:03): highest S/N value
- normalized ELISA OD (signal to background) (HLA-A*02:03): highest normalized ELISA OD value

Sequence: IAKSGTSEF (FAAEAQKL) [Peptide C0202-03]
- S/N ELISA value (C*02:02 [3]): highest S/N value
- normalized ELISA OD (C*02:02 [3]): highest normalized OD value
- ligand presentation (C*02:02 [2]): Positive

Sequence: IPAEGRVAL [Peptide B3503-02]
- ligand presentation (B*35:03 [1]): Positive

Sequence: KIRDLLPVM [Peptide C0202-04]
- ligand presentation (C*02:02 [2]): Positive

Sequence: SYMSTFPLF [Peptide C0202-05]
- ligand presentation (C*02:02 [2]): Positive

Sequence: SYMSTFPLF [Peptide C1402-01]
- Kd (C*14:02): 0.1 nM

Sequence: TJANYFHVL (TXANYFHVL; not fully specified) [Peptide B3503-04-01]
- S/N ELISA value (B*35:03 [4]): very low S/N ELISA values
- normalized ELISA OD (signal to background) (B*35:03 [4]): very low normalized ELISA values

Sequence: TPAJYFHVL (TPA[code J]YFHVL; not fully specified; reading uncertain) [Peptide B3503-04-02]
- S/N ELISA value (B*35:03 [4]): highest S/N value
- normalized ELISA OD (signal to background) (B*35:03 [4]): highest normalized ELISA OD value

Sequence: TPANYFHVL [Peptide B3503-04]
- ligand presentation (B*35:03 [1]): Positive
- S/N ELISA value (B*35:03 [4]): highest OD value
- normalized ELISA OD (signal to background) (B*35:03 [4]): highest OD value

Sequence: TYLQSLASL [Peptide C1402-02]
- Kd (C*14:02): 0.1 nM

Sequence: YPYPYPHTAAFSKLIYL [Peptide B3503-05]
- ligand presentation (B*35:03 [1]): Positive

Sequence: YYRYPTGESY [Peptide C1402-03]
- Kd (C*14:02): 0.1 nM
